Numbered stars: 1 amine (or outer) side, 2 acyl side, 3 side chain; on linkers, the order of the positions; unused ones are H or OH. Bridge positions count the residues as written; N and C are the ends. Side chains are listed from the residue outwards. Ends that are not written are not given here. * marks the point of attachment. C20 diacid = O=C(O)CCCCCCCCCCCCCCCCCCC(=O)*; γGlu = O=C(O)[C@H](CCC(=O)[*:2])N[*:1]; AEEA = NCCOCCOCC(=O)O
T1: human amylin receptor (amylin 3(a) receptor: human calcitonin receptor co-expressed with RAMP-3) (human, UniProt P30988 25-474; O60896 24-148, limits assumed)
T1 sequence (looked up) 1: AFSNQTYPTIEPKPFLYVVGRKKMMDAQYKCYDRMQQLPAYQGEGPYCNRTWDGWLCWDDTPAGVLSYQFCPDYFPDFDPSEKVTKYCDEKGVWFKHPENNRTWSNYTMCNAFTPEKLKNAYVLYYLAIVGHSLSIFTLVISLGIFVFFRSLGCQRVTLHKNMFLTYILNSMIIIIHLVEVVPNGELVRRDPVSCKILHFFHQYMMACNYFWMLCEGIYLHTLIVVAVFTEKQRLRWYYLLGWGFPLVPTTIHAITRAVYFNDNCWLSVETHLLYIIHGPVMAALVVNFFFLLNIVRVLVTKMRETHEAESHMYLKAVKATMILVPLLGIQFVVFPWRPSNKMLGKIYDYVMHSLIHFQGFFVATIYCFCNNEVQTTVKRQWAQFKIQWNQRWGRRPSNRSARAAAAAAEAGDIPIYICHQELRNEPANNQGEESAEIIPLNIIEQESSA
T1 sequence (looked up) 2: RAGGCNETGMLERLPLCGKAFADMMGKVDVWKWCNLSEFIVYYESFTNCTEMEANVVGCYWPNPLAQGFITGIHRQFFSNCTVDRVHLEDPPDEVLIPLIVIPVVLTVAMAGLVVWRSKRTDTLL

T2: human calcitonin receptor (human, UniProt P30988 25-474)
T2 sequence (looked up): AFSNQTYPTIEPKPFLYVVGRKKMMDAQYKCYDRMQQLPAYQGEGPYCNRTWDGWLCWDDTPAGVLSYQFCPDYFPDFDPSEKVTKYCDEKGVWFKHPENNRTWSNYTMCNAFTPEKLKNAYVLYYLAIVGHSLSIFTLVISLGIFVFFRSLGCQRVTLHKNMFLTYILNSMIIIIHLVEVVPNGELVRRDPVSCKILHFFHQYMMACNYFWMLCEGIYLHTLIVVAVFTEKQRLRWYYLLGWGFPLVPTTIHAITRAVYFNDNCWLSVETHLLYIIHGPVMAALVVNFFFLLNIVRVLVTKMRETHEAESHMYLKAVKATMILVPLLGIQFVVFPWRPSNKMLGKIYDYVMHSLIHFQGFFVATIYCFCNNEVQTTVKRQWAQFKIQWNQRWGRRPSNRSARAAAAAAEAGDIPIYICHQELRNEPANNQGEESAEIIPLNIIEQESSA


Assays:
[1] = target: T1, human amylin receptor (amylin 3(a) …); assay: cell-based or functional assay
[2] = target: T2, human calcitonin receptor; assay: cell-based or functional assay

Binder | hAmylin-R funct. EC50 [1] | Ratio hCT/hAmylin funct. (hCTR EC50 against hAmylin-R EC50) [2] | hCTR funct. EC50 [2]
K([AEEA-γGlu-C20 diacid])CNTATCATQRLANFLRHSSPNFGAIPSSTPVGSHTY-NH2 (disulfide 2-7; N-terminus assumed; SMILES CC[C@H](C)[C@H](NC(=O)[C@H](C)NC(=O)CNC(=O)[C@H](Cc1ccccc1)NC(=O)[C@H](CC(N)=O)NC(=O)[C@@H]1CCCN1C(=O)[C@H](CO)NC(=O)[C@H](CO)NC(=O)[C@H](Cc1c[nH]cn1)NC(=O)[C@H](CCCNC(=N)N)NC(=O)[C@H](CC(C)C)NC(=O)[C@H](Cc1ccccc1)NC(=O)[C@H](CC(N)=O)NC(=O)[C@H](C)NC(=O)[C@H](CC(C)C)NC(=O)[C@H](CCCNC(=N)N)NC(=O)[C@H](CCC(N)=O)NC(=O)[C@@H](NC(=O)[C@H](C)NC(=O)[C@@H]1CSSC[C@H](NC(=O)[C@@H](N)CCCCNC(=O)COCCOCCNC(=O)CC[C@H](NC(=O)CCCCCCCCCCCCCCCCCCC(=O)O)C(=O)O)C(=O)N[C@@H](CC(N)=O)C(=O)N[C@@H]([C@@H](C)O)C(=O)N[C@@H](C)C(=O)N[C@@H]([C@@H](C)O)C(=O)N1)[C@@H](C)O)C(=O)N1CCC[C@H]1C(=O)N[C@@H](CO)C(=O)N[C@@H](CO)C(=O)N[C@H](C(=O)N1CCC[C@H]1C(=O)N[C@H](C(=O)NCC(=O)N[C@@H](CO)C(=O)N[C@@H](Cc1c[nH]cn1)C(=O)N[C@H](C(=O)N[C@@H](Cc1ccc(O)cc1)C(N)=O)[C@@H](C)O)C(C)C)[C@@H](C)O, also called compound 57) | 0.089 nM | 35 | 3.12 nM
K([AEEA-γGlu-C20 diacid])CNTATCATQRLAHFLRHSSPNFGAIPSSTPVGSNTY-NH2 (disulfide 2-7; N-terminus assumed; SMILES CC[C@H](C)[C@H](NC(=O)[C@H](C)NC(=O)CNC(=O)[C@H](Cc1ccccc1)NC(=O)[C@H](CC(N)=O)NC(=O)[C@@H]1CCCN1C(=O)[C@H](CO)NC(=O)[C@H](CO)NC(=O)[C@H](Cc1c[nH]cn1)NC(=O)[C@H](CCCNC(=N)N)NC(=O)[C@H](CC(C)C)NC(=O)[C@H](Cc1ccccc1)NC(=O)[C@H](Cc1c[nH]cn1)NC(=O)[C@H](C)NC(=O)[C@H](CC(C)C)NC(=O)[C@H](CCCNC(=N)N)NC(=O)[C@H](CCC(N)=O)NC(=O)[C@@H](NC(=O)[C@H](C)NC(=O)[C@@H]1CSSC[C@H](NC(=O)[C@@H](N)CCCCNC(=O)COCCOCCNC(=O)CC[C@H](NC(=O)CCCCCCCCCCCCCCCCCCC(=O)O)C(=O)O)C(=O)N[C@@H](CC(N)=O)C(=O)N[C@@H]([C@@H](C)O)C(=O)N[C@@H](C)C(=O)N[C@@H]([C@@H](C)O)C(=O)N1)[C@@H](C)O)C(=O)N1CCC[C@H]1C(=O)N[C@@H](CO)C(=O)N[C@@H](CO)C(=O)N[C@H](C(=O)N1CCC[C@H]1C(=O)N[C@H](C(=O)NCC(=O)N[C@@H](CO)C(=O)N[C@@H](CC(N)=O)C(=O)N[C@H](C(=O)N[C@@H](Cc1ccc(O)cc1)C(N)=O)[C@@H](C)O)C(C)C)[C@@H](C)O, also called compound 61) | 0.051 nM | 10.9 | 0.554 nM
K([AEEA-γGlu-C20 diacid])CNTATCATQRLANFLRHSSPNFGAIPSSTNVGPHTY-NH2 (disulfide 2-7; N-terminus assumed; SMILES CC[C@H](C)[C@H](NC(=O)[C@H](C)NC(=O)CNC(=O)[C@H](Cc1ccccc1)NC(=O)[C@H](CC(N)=O)NC(=O)[C@@H]1CCCN1C(=O)[C@H](CO)NC(=O)[C@H](CO)NC(=O)[C@H](Cc1c[nH]cn1)NC(=O)[C@H](CCCNC(=N)N)NC(=O)[C@H](CC(C)C)NC(=O)[C@H](Cc1ccccc1)NC(=O)[C@H](CC(N)=O)NC(=O)[C@H](C)NC(=O)[C@H](CC(C)C)NC(=O)[C@H](CCCNC(=N)N)NC(=O)[C@H](CCC(N)=O)NC(=O)[C@@H](NC(=O)[C@H](C)NC(=O)[C@@H]1CSSC[C@H](NC(=O)[C@@H](N)CCCCNC(=O)COCCOCCNC(=O)CC[C@H](NC(=O)CCCCCCCCCCCCCCCCCCC(=O)O)C(=O)O)C(=O)N[C@@H](CC(N)=O)C(=O)N[C@@H]([C@@H](C)O)C(=O)N[C@@H](C)C(=O)N[C@@H]([C@@H](C)O)C(=O)N1)[C@@H](C)O)C(=O)N1CCC[C@H]1C(=O)N[C@@H](CO)C(=O)N[C@@H](CO)C(=O)N[C@H](C(=O)N[C@@H](CC(N)=O)C(=O)N[C@H](C(=O)NCC(=O)N1CCC[C@H]1C(=O)N[C@@H](Cc1c[nH]cn1)C(=O)N[C@H](C(=O)N[C@@H](Cc1ccc(O)cc1)C(N)=O)[C@@H](C)O)C(C)C)[C@@H](C)O, also called compound 58) | 0.047 nM | 21.9 | 1.03 nM

From patent US20140087995A1 (published 2014)
